Where a chain is given by its changes, count along the chain named. In names and notes the source's numbering stands.
T1: PUF4 RNA-binding domain (Saccharomyces cerevisiae, UniProt P25339 537-888)
T1 sequence: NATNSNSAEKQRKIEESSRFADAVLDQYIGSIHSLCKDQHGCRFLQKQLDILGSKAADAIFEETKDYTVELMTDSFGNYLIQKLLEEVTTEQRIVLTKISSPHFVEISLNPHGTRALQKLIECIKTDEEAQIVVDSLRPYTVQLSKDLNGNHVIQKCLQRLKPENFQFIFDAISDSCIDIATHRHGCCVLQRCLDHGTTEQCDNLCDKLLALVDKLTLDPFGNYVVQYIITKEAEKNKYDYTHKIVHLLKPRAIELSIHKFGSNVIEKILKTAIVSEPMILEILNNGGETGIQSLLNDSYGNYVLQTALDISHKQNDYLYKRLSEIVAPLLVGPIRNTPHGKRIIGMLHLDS

B1: Ic_S4_P4E.1_K4.1_C4.1_H4.1_A4.1_[A6C]_[T7G]_F4.1_[T8G]_[A9C]_T4.1 (ssRNA)
RNA: UUUGACAACUGAUCGUUCUUUCUUGUAUCGGCUUCUUUCUCGAUCAGUUGUCUUU
B2: Ic_S4_P4E.1_K4.1_C4.1_H4.1_A4.1_[A6C]_[T7G]_F4.1_[T8C]_[A9C]_T4.1 (ssRNA)
RNA: B1 RNA with G31C
B3: Ic_S4_P4E.1_K4.1_C4.1_H4.1_A4.1_[A6C]_[T7G]_F4.1_[T8A]_[A9C]_T4.1 (ssRNA)
RNA: B1 RNA with G31A
B4: Ic_S4_P4E.1_K4.1_C4.1_H4.1_A4.1_[A6C]_[T7C]_F4.1_[T8G]_[A9T]_T4.1 (ssRNA)
RNA: B1 RNA with G30C, C32U
B5: Ic_S4_P4E.1_K4.1_C4.1_H4.1_A4.1_[A6C]_[T7C]_F4.1_[T8C]_[A9G]_T4.1 (ssRNA)
RNA: B1 RNA with G30C, G31C, C32G
B6: Ic_S4_P4E.1_K4.1_C4.1_H4.1_A4.1_[A6C]_[T7C]_F4.1_[T8C]_[A9C]_T4.1 (ssRNA)
RNA: B1 RNA with G30C, G31C
B7: Ic_S4_P4E.1_K4.1_C4.1_H4.1_A4.1_[A6C]_[T7C]_F4.1_[T8A]_T4.1 (ssRNA)
RNA: B1 RNA with G30C, G31A, C32A
B8: Ic_S4_P4E.1_K4.1_C4.1_H4.1_A4.1_[A6C]_[T7C]_F4.1_[A9G]_T4.1 (ssRNA)
RNA: B1 RNA with G30C, G31U, C32G
B9: Ic_S4_P4E.1_K4.1_C4.1_H4.1_A4.1_[A6C]_[T7A]_F4.1_[T8A]_[A9C]_T4.1 (ssRNA)
RNA: B1 RNA with G30A, G31A
B10: Ic_S4_P4E.1_K4.1_C4.1_H4.1_A4.1_[A6C]_[T7A]_F4.1_[T8A]_[A9T]_T4.1 (ssRNA)
RNA: B1 RNA with G30A, G31A, C32U
B11: Ic_S4_P4E.1_K4.1_C4.1_H4.1_A4.1_[A6C]_[T7A]_F4.1_[A9G]_T4.1 (ssRNA)
RNA: B1 RNA with G30A, G31U, C32G
B12: Ic_S4_P4E.1_K4.1_C4.1_H4.1_A4.1_[A6C]_F4.1_[T8G]_[A9G]_T4.1 (ssRNA)
RNA: B1 RNA with G30U, C32G
B13: Ic_S4_P4E.1_K4.1_C4.1_H4.1_A4.1_[A6C]_F4.1_[T8G]_[A9C]_T4.1 (ssRNA)
RNA: B1 RNA with G30U
B14: Ic_S4_P4E.1_K4.1_C4.1_H4.1_A4.1_[A6C]_F4.1_[T8C]_[A9G]_T4.1 (ssRNA)
RNA: B1 RNA with G30U, G31C, C32G
B15: Ic_S4_P4E.1_K4.1_C4.1_H4.1_A4.1_[A6C]_F4.1_[T8C]_[A9C]_T4.1 (ssRNA)
RNA: B1 RNA with G30U, G31C
B16: Ic_S4_P4E.1_K4.1_C4.1_H4.1_A4.1_[A6C]_F4.1_[T8C]_[A9T]_T4.1 (ssRNA)
RNA: B1 RNA with G30U, G31C, C32U
B17: Ic_S4_P4E.1_K4.1_C4.1_H4.1_A4.1_[A6C]_F4.1_[T8A]_[A9G]_T4.1 (ssRNA)
RNA: B1 RNA with G30U, G31A, C32G
B18: Ic_S4_P4E.1_K4.1_C4.1_H4.1_A4.1_[A6C]_F4.1_[T8A]_[A9C]_T4.1 (ssRNA)
RNA: B1 RNA with G30U, G31A
B19: Ic_S4_P4E.1_K4.1_C4.1_H4.1_A4.1_[A6T]_[T7G]_F4.1_[T8G]_[A9T]_T4.1 (ssRNA)
RNA: B1 RNA with C29U, C32U
B20: Ic_S4_P4E.1_K4.1_C4.1_H4.1_A4.1_[A6T]_[T7G]_F4.1_[T8C]_[A9G]_T4.1 (ssRNA)
RNA: B1 RNA with C29U, G31C, C32G
B21: Ic_S4_P4E.1_K4.1_C4.1_H4.1_A4.1_[A6T]_[T7G]_F4.1_[T8C]_[A9C]_T4.1 (ssRNA)
RNA: B1 RNA with C29U, G31C
B22: Ic_S4_P4E.1_K4.1_C4.1_H4.1_A4.1_[A6T]_[T7G]_F4.1_[A9G]_T4.1 (ssRNA)
RNA: B1 RNA with C29U, G31U, C32G
B23: Ic_S4_P4E.1_K4.1_C4.1_H4.1_A4.1_[A6T]_[T7C]_F4.1_[T8G]_[A9C]_T4.1 (ssRNA)
RNA: B1 RNA with C29U, G30C
B24: Ic_S4_P4E.1_K4.1_C4.1_H4.1_A4.1_[A6T]_[T7C]_F4.1_[T8C]_[A9G]_T4.1 (ssRNA)
RNA: B1 RNA with C29U, G30C, G31C, C32G
B25: Ic_S4_P4E.1_K4.1_C4.1_H4.1_A4.1_[A6T]_[T7C]_F4.1_[T8C]_[A9T]_T4.1 (ssRNA)
RNA: B1 RNA with C29U, G30C, G31C, C32U
B26: Ic_S4_P4E.1_K4.1_C4.1_H4.1_A4.1_[A6T]_[T7C]_F4.1_[T8A]_[A9C]_T4.1 (ssRNA)
RNA: B1 RNA with C29U, G30C, G31A
B27: Ic_S4_P4E.1_K4.1_C4.1_H4.1_A4.1_[A6T]_[T7C]_F4.1_[T8A]_[A9T]_T4.1 (ssRNA)
RNA: B1 RNA with C29U, G30C, G31A, C32U
B28: Ic_S4_P4E.1_K4.1_C4.1_H4.1_A4.1_[A6T]_[T7C]_F4.1_[A9G]_T4.1 (ssRNA)
RNA: B1 RNA with C29U, G30C, G31U, C32G
B29: Ic_S4_P4E.1_K4.1_C4.1_H4.1_A4.1_[A6T]_[T7C]_F4.1_[A9C]_T4.1 (ssRNA)
RNA: B1 RNA with C29U, G30C, G31U
B30: Ic_S4_P4E.1_K4.1_C4.1_H4.1_A4.1_[A6T]_[T7C]_F4.1_[A9T]_T4.1 (ssRNA)
RNA: B1 RNA with C29U, G30C, G31U, C32U
B31: Ic_S4_P4E.1_K4.1_C4.1_H4.1_A4.1_[A6T]_[T7A]_F4.1_[T8G]_[A9C]_T4.1 (ssRNA)
RNA: B1 RNA with C29U, G30A
B32: Ic_S4_P4E.1_K4.1_C4.1_H4.1_A4.1_[A6T]_[T7A]_F4.1_[T8C]_[A9C]_T4.1 (ssRNA)
RNA: B1 RNA with C29U, G30A, G31C
B33: Ic_S4_P4E.1_K4.1_C4.1_H4.1_A4.1_[A6T]_[T7A]_F4.1_[T8C]_T4.1 (ssRNA)
RNA: B1 RNA with C29U, G30A, G31C, C32A
B34: Ic_S4_P4E.1_K4.1_C4.1_H4.1_A4.1_[A6T]_[T7A]_F4.1_[T8A]_[A9T]_T4.1 (ssRNA)
RNA: B1 RNA with C29U, G30A, G31A, C32U
B35: Ic_S4_P4E.1_K4.1_C4.1_H4.1_A4.1_[A6T]_[T7A]_F4.1_[A9C]_T4.1 (ssRNA)
RNA: B1 RNA with C29U, G30A, G31U
B36: Ic_S4_P4E.1_K4.1_C4.1_H4.1_A4.1_[A6T]_F4.1_[T8G]_[A9G]_T4.1 (ssRNA)
RNA: B1 RNA with C29U, G30U, C32G
B37: Ic_S4_P4E.1_K4.1_C4.1_H4.1_A4.1_[A6T]_F4.1_[T8G]_[A9T]_T4.1 (ssRNA)
RNA: B1 RNA with C29U, G30U, C32U
B38: Ic_S4_P4E.1_K4.1_C4.1_H4.1_A4.1_[A6T]_F4.1_[T8C]_[A9C]_T4.1 (ssRNA)
RNA: B1 RNA with C29U, G30U, G31C
B39: Ic_S4_P4E.1_K4.1_C4.1_H4.1_A4.1_[A6T]_F4.1_[T8A]_T4.1 (ssRNA)
RNA: B1 RNA with C29U, G30U, G31A, C32A
B40: Ic_S4_P4E.1_K4.1_C4.1_H4.1_A4.1_[A6T]_F4.1_[A9T]_T4.1 (ssRNA)
RNA: B1 RNA with C29U, G30U, G31U, C32U
B41: Ic_S4_P4E.1_K4.1_C4.1_H4.1_A4.1_[T7G]_F4.1_[T8C]_[A9C]_T4.1 (ssRNA)
RNA: B1 RNA with C29A, G31C
B42: Ic_S4_P4E.1_K4.1_C4.1_H4.1_A4.1_[T7G]_F4.1_[T8C]_[A9T]_T4.1 (ssRNA)
RNA: B1 RNA with C29A, G31C, C32U
B43: Ic_S4_P4E.1_K4.1_C4.1_H4.1_A4.1_[T7C]_F4.1_[T8G]_[A9T]_T4.1 (ssRNA)
RNA: B1 RNA with C29A, G30C, C32U
B44: Ic_S4_P4E.1_K4.1_C4.1_H4.1_A4.1_[T7C]_F4.1_[T8A]_[A9C]_T4.1 (ssRNA)
RNA: B1 RNA with C29A, G30C, G31A
B45: Ic_S4_P4E.1_K4.1_C4.1_H4.1_A4.1_[T7A]_F4.1_[T8C]_[A9G]_T4.1 (ssRNA)
RNA: B1 RNA with C29A, G30A, G31C, C32G
B46: Ic_S4_P4E.1_K4.1_C4.1_H4.1_A4.1_[T7A]_F4.1_[A9T]_T4.1 (ssRNA)
RNA: B1 RNA with C29A, G30A, G31U, C32U
B47: Ic_S4_P4E.1_K4.1_C4.1_H4.1_A4.1_F4.1_[T8C]_[A9C]_T4.1 (ssRNA)
RNA: B1 RNA with C29A, G30U, G31C
B48: Ic_S4_P4E.1_K4.1_C4.1_H4.1_A4.1_F4.1_[T8A]_T4.1 (ssRNA)
RNA: B1 RNA with C29A, G30U, G31A, C32A
B49: Ic_S4_P4E.1_K4.1_C4.1_H4.1_A4.1_F4.1_[A9C]_T4.1 (ssRNA)
RNA: B1 RNA with C29A, G30U, G31U
B50: Ic_S4_P4E.1_K4.1_C4.1_H4.1_A4.1_F4.1_T4.1 (ssRNA)
RNA: B1 RNA with C29A, G30U, G31U, C32A
B51: Ic_S4_P5E.1_K5.1_C5.1_H5.1_A5.1_[T5C]_[T6C]_F5.1_[T8A]_[T9C]_[A10C]_T5.1 (ssRNA)
RNA: UUUGACAACUGAUCGUUCUUUCUUGUACCAACCUUCUUUCUCGAUCAGUUGUCUUU
B52: Ic_S4_P5E.1_K5.1_C5.1_H5.1_A5.1_[T5A]_[T6C]_[A7C]_F5.1_[T8G]_[T9C]_[A10C]_T5.1 (ssRNA)
RNA: B51 RNA with C28A, A30C, A31G

Molecular target: T1, PUF4 RNA-binding domain
Assay: Mg; RNA-MaP; 20 mM Na-HEPES pH 7.4, 30 mM KOAc, 0.75 mM MgCl2, 0.1% Tween-20, 5% glycerol, 0.1 mg/mL BSA, 2 mM DTT; 25 C; 0.0125-409.6 nM protein
Details: tags: N-His6-TEV cleaved; C-SNAP kept, Cy3B-labelled; label: tethered on chip by stalled RNA polymerase

Binder	Kd [nM]
B1	> 2300
B2	994
B3	> 2300
B4	172
UCUCUUUGUAUACCAUCUCUU (ssRNA) [Ib_S1_P4E.1_K4.1_C4.1_H4.1_A4.1_[T7C]_F4.1_[T8C]_T4.1]	13.1
B5	449
B6	403
B7	577
B8	29.9
B9	477
B10	50.5
B11	10.1
B12	89.5
B13	52
B14	31.1
UCUCUUUGUAUAACAUCUCUU (ssRNA) [Ib_S1_P4E.1_K4.1_C4.1_H4.1_A4.1_[T7A]_F4.1_[T8C]_T4.1]	11.8
B15	31.5
B16	16.7
B17	40.4
B18	34.1

Binder	Kd [nM]
B19	1310
B20	593
B21	537
B22	75.1
B23	417
B24	158
UCUCUUUGUAUACAAUCUCUU (ssRNA) [Ib_S1_P4E.1_K4.1_C4.1_H4.1_A4.1_[T7C]_F4.1_[T8A]_T4.1]	44.8
B25	61.9
B26	425
B27	113
B28	20.4
B29	34.4
B30	27.8
B31	794
B32	191
B33	436
B34	95
UCUCUUUGUAUAAAAUCUCUU (ssRNA) [Ib_S1_P4E.1_K4.1_C4.1_H4.1_A4.1_[T7A]_F4.1_[T8A]_T4.1]	22.1
B35	38.3
B36	230

Binder	Kd [nM]
B37	46.1
B38	74.5
B39	21.1
B40	12.1
B41	87.3
B42	49.5
B43	27.5
B44	51.1
UCUCUUUGUUUAUUAUCUCUU (ssRNA) [Ia_S1_P4E.1_K4.1_C4.1_H4.1_[A4T]_A4.1_F4.1_T4.1]	11.5
UCUCUUUGUACAUUGUCUCUU (ssRNA) [Ic_S1_P4E.1_K4.1_C4.1_H4.1_A4.1_[T5C]_F4.1_[A9G]_T4.1]	3.75
B45	40.4
B46	10.2
B47	12.3
B48	2.9
B49	4.49
B50	0.362
B51	424
B52	1380
